Data as given in US20140011728A1.

Target: IL-1 receptor expressed by INS-1 cells (rat (INS-1 cells are derived from a rat insulinoma)) (UniProt Q02955)

NO release: 6.56 µM
Substance: IL-1β (ligand)
